Measurements taken from patent US20250326862A1, “Antibody or Fragment Thereof Binding Specifically to Mertk, and Anti-Tumor Agent” (Chiome Bioscience Inc., priority 2021, published 2025).

B1: 24A1_mIgG1: recombinant mouse IgG1 antibody with 24A1 variable regions (antibody, V domains shown)
VH: EVQLVESGGGLVQPKGSLKLSCAASGFTFNVYDMHWVRQAPGEGLEWVARIRSKSSNYATNYADSVKDRFTISRDDSQSMLYLQMNNLQTEDTAIYYCVRDGSHYYYALDYWGQGTSVTVSS
VL: DIQMTQTTSSLSASLGDRVTISCRASQDINNYLNWYQQKLDGTVKLLIYYSSRLHSGVPSRFSGSGSGTDYSLTISNLEQEDIATYFCQQGKMFPWTFGGGTKLEIK

Tests used:
[1] = Test 7: in vivo ocular toxicity test, TB staining of eye sections; parameters: species or system Balb/c mice; conditions: eyes removed day 29, FIG. 17
Description: The ocular toxicity test was carried out using Balb/c mice. The mice intravenously received “20A77_mIgG1”, “24A1_mIgG1” or an isotype control antibody mIgG1 at a dose of 10 mg/kg at a frequency of twice a week. As a positive control of ocular toxicity, mice orally received a MerTK small molecule inhibitor UNC569 at a dose of 150 mg/kg for 10 days. At day 29 after the first administration, eyes were removed, fixed with a Karnovsky's fixative and then subjected to embedding in a resin, preparation of sections and toluidine blue staining (hereinafter also referred to as “TB staining”) carried out by Applied Medical Research Laboratory.

[2] = administration to mice; Non-Patent Document 3; cited from earlier work
[3] = system: mouse colon cancer cell line CT26; assay: Test 4: efficacious dosage in CT26 syngeneic tumor model; assay type: in vivo, Balb/c mice; conditions: vs solvent control
Description: (§1) CT26 cells (5×10^6 cells per mouse) were subcutaneously transplanted to Balb/c mice at the right flank. After 5 days of the tumor transplantation, the mice were divided into groups and an isotype control antibody mIgG2a and “20A77_mIgG2a” were respectively intraperitoneally administered at a dose of 10 mg/kg at a frequency of twice a week. After the administration, the tumor size was measured at a frequency of twice a week until day 19 after the tumor transplantation. The tumor size was calculated from the equation below with the minor axis and the major axis of the tumor measured using calipers:
On the basis of the procedures indicated below, anti-tumor effects of “20A77_mIgG1” and “24A1_mIgG1” according to the dosage thereof were evaluated. As “Test 3” above, a syngeneic tumor model using the mouse colon cancer cell line CT26 (ATCC) was used for the evaluation.
In the “20A77_mIgG1” administration group, a solvent (1% histidine buffer, pH 6.0) and “20A77_mIgG1” were intraperitoneally administered at a dose of 3, 10 or 30 mg/kg at a frequency of twice a week. […] The tumor size was measured at a frequency of twice a week until day 19 and 22 after the tumor transplantation for the “20A77_mIgG1” and “24A1_mIgG1” administration groups, respectively.

[4] = system: mouse colon cancer cell line CT26; assay: Test 5: combined administration with anti-PD-1 antibody in CT26 syngeneic tumor model; assay type: in vivo, Balb/c mice; conditions: 5 mg/kg plus anti-mouse PD-1 antibody 29F.1A12 0.3 mg/kg, twice a week until day 19; FIGS. 11 and 12
Description: as §1
On the basis of the procedures indicated below, anti-tumor effects of combined use of each of “20A77_mIgG1” and “24A1_mIgG1” and an anti-PD-1 antibody were evaluated. As “Test 3” above, a syngeneic tumor model using the mouse colon cancer cell line CT26 (ATCC) was used for the evaluation. Anti-PD-1 antibodies are known to have anti-tumor effects.
The administration groups received the antibodies indicated below at a frequency of twice a week. […]

| Molecule | TB-positive granules in the retinal pigment epithelium ([1]; positive control, 150 mg/kg oral for 10 days) | ocular toxicity: toluidine blue-positive granules and vacuoles in photoreceptor [2] | TB-positive granules in the retinal pigment epithelium ([1]; 10 mg/kg intravenous twice a week) | tumor growth suppressing effect ([3]; 5 mg/kg intraperitoneal twice a week, until day 22, FIGS. 9 and 10) | tumor growth suppressing effect ([3]; 30 mg/kg intraperitoneal twice a week, day 19 (20A77_mIgG1) or day 22 (24A1_mIgG1)) | anti-tumor effects of combined use with anti-PD-1 antibody [4] |
| --- | --- | --- | --- | --- | --- | --- |
| CCCCNc1ncc2c(-c3ccc(F)cc3)nn(CC3CCC(N)CC3)c2n1 (stereo not drawn) [UNC569, reference compound] | increased TB-positive granules | increased toluidine blue-positive granules and vacuoles in photoreceptor, resulting in ocular toxicity |  |  |  |  |
| B1 |  |  | no increase in TB-positive granules was observed | significant tumor growth suppression | significant tumor growth suppression | had enhanced anti-tumor effects |
